Assay results as given in US20230322924A1 (Janssen / Centocor, published 2023).

Assays:
Human CD33 ECD-HSA [1] = target: Human CD33 ECD-HSA (human); test: SPRi off-rate screen (IBIS MX96), mAb captured by anti-human Fc; column head prints KD
Protocol: (§1) To begin assessing the biophysical binding properties of the purified mAbs an off-rate screen was performed. 76 OMNIRat anti-CD33 mAbs were tested for binding to recombinant human CD33 ECD-HSA (C33W2) and cyno CD33 ECD-HSA (C33W1) proteins (Janssen production) and the off-rate was measured by IBIS MX96 SPRi array platform (Carterra; Newton, PA). […] The sensor chip was transferred to the Continuous Flow Microspotter (CFM) unit to capture each anti-CD33 mAb at 10 μg/ml for 10 minutes. Binding was measured on IBIS SPRi by single cycle kinetics without regeneration. […] The raw binding data (.trix file format) were referenced and aligned using SprintX software (Wasatch, Ver 1.9.3.2), then exported (.ibmx file format) to Scrubber software (Ver. 2.0) for 1:1 binding kinetic analyses (Wasatch, version 2.0.0.33) to extract the koff results.

Cyno CD33 ECD-HSA [2] = target: T1, Cyno CD33 ECD-HSA (cynomolgus monkey); test: ProteOn SPR, mAb captured by anti-human Fc, 1:1 Langmuir fit
T1 construct: Cyno CD33 extracellular domain fused to monomeric human serum albumin and a six-histidine tag; also called C33W1
Protocol: (§2) The panel of mAbs was then further characterized for full affinity analysis as well as epitope binning. The binding of anti-CD33 mAbs to recombinant human CD33 ECD-HSA (C33W2) and cyno CD33 ECD-HSA (C33W1) was measured by ProteOn SPR (Bio-Rad). […] Different mAbs were captured on the anti-human Fc IgG surface at 0.25 or 0.5 μg/ml (160-300 RU) in vertical ligand orientation, with the 6th ligand channel as no ligand surface control. Human and cyno CD33-HSA proteins at 0.3 μM concentration in 3-fold dilution series of 5 concentrations flew in as analyte to bind to captured mAbs in the horizontal orientation. A buffer sample was also injected in the 6th channel to monitor the dissociation of captured mAb and baseline stability. […] The raw biding data were processed by double referencing after subtracting the response data from: 1) the inter-spot to correct for the non-specific interactions between the Ag and the empty chip surface; 2) the buffer channel to correct for baseline drifting due to the dissociation of captured mAb surface over time. The processed data at all antigen concentrations for each mAb were globally fit to a 1:1 simple Langmuir binding model to extract estimates of the kinetic (kₒₙ, koff) and affinity (Kd) constants.

Human CD33 ECD-HSA [3] = target: Human CD33 ECD-HSA (human); test: as above
Protocol: as §2

[4] = target: T2, Human CD33 full length, expressed on HEK293F cells (human, UniProt P20138 18-364); test: flow cytometry, HEK293F cells expressing human CD33
T2 construct: HEK293F cells transduced with lentivirus containing full length human CD33; also called huCD33
T2 sequence (P20138 18-364 limits assumed): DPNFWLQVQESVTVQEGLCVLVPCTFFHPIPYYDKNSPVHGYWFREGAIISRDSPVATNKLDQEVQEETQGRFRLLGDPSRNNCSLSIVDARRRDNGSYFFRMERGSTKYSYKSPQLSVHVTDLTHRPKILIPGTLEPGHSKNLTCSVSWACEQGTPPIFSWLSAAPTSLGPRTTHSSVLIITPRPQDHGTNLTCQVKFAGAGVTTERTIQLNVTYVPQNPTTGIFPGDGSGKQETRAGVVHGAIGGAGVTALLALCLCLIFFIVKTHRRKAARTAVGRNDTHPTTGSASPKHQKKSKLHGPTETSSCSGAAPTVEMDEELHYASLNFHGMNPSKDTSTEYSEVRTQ
Protocol: (§3) OMNIRat antibodies identified via immunization, v-region cloned and subsequently expressed and purified were characterized further for binding to CD33 expressing cells and binding to recombinant antigens. The purified antibodies were assessed for binding to stably transfected HEK293F cells expressing human CD33 or cyno CD33 (generation described above) along with the parental HEK293F as negative control. Cells were harvested from tissue culture flasks using non-enzymatic dissociation buffer (Thermo Scientific). The flasks were rinsed twice with PBS and dissociation buffer was added to the flask, and the flask was incubated for 10 minutes at 37° C. until the cells became non-adherent. The cells were centrifuged at 300 g for 5 minutes and resuspended at 1.0×10⁶ cells/ml in staining buffer (Becton Dickinson; Franklin Lakes, NJ). 50,000 cells/well of each cell type was plated in 50 μl of staining buffer in round bottom plates (Becton Dickinson). […] 100 μl staining buffer was added to all wells of each plate, the plates were spun at 300 g for 5 min, the buffer was removed, 200 μl staining buffer was added to all wells of each plate, the plates were spun at 300 g for 5 min, and the buffer was removed. 50 μl of 2 μg/ml of Goat-anti-human Fc AF647 secondary antibody (Jackson Immunoresearch; West Grove, PA) was added to all wells of the plates, and the plates were incubated for 30 min at 4° C. 100 μl staining buffer was added to all wells of the plates, the plates were spun at 300 g for 5 min, and the buffer was removed. 200 μl running buffer (running buffer is Staining buffer, 1 mM EDTA, 0.1% Pluronic Acid) was added to all wells of the plates, the plates were spun at 300 g for 5 min, and the buffer was removed. 30 μl running buffer containing Sytox Green live/dead dye (ThermoFisher) was added to all wells with cells and the plates were read on an iQue IntelliCyt flow cytometer. Cells were gated on forward vs. side scatter to eliminate debris, then on singlets and then on live cells which excluded the Sytox stain. Antibody binding was assessed by the mean fluorescence intensity in the AF647 channel.

Cyno CD33 ECD-HSA [5] = target: T1, Cyno CD33 ECD-HSA; test: SPRi off-rate screen (IBIS MX96), mAb captured by anti-human Fc; column head prints Cyno CD33 binding KD
Protocol: as §1

[6] = target: T3, Cyno CD33 full length, expressed on HEK293F cells (cynomolgus monkey); test: flow cytometry, HEK293F cells expressing cyno CD33
T3 construct: HEK293F cells transduced with lentivirus containing full length cyno CD33 (Genbank XP_005590138.1); also called cyCD33
Protocol: as §3

Sequence of Human CD33 ECD-HSA (human) (chain, as listed by the source): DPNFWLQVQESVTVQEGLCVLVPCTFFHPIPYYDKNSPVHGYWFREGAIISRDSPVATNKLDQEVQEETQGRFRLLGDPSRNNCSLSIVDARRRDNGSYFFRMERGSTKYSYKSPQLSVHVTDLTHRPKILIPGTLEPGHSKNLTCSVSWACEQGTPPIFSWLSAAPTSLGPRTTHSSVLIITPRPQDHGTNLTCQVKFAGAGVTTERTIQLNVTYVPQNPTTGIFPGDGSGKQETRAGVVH

| Binder | koff (Human CD33 ECD-HSA [1]) [s⁻¹] | Kd (Cyno CD33 ECD-HSA [2]) [nM] | koff (Cyno CD33 ECD-HSA [2]) [s⁻¹] | kon (Cyno CD33 ECD-HSA [2]) [M⁻¹ s⁻¹] | Kd (Human CD33 ECD-HSA [3]) [nM] | koff (Human CD33 ECD-HSA [3]) [s⁻¹] | kon (Human CD33 ECD-HSA [3]) [M⁻¹ s⁻¹] | MFI at 0 nM mAb (background) [4] [MFI] | MFI at 0.6 nM mAb [4] [MFI] | MFI at 6 nM mAb [4] [MFI] | MFI at 60 nM mAb [4] [MFI] | koff (Cyno CD33 ECD-HSA [5]) [s⁻¹] | MFI at 0 nM mAb (background) [6] [MFI] | MFI at 0.6 nM mAb [6] [MFI] | MFI at 6 nM mAb [6] [MFI] | MFI at 60 nM mAb [6] [MFI] |
| --- | --- | --- | --- | --- | --- | --- | --- | --- | --- | --- | --- | --- | --- | --- | --- | --- |
| C33B72 (antibody, IgG1, V domains shown, huIgG1 F405L; also called C33F77; C33H65/C33L47) VH: QVQLVESGGGVVQPGRSLRLSCAASGFTFSSYGMHWVRQAPGKGLEWVVVISYDGSNKYYADSVKGRFTISRDNSKNTLYLQMNSLRAEDTAVYYCAKDFRDFDWLPPDSTSYHGMDVWGQGTTVTVSS VL: SYELTQPPSVSVSPGQTASITCSGDKLGDKYACWYQQKPGQSPVVVIYQDRKRPSGIPERFSGSNFGNTATLTISGTQAMDEADYYCQAWDSSTVVFGGGTKLTVL | 0.000284 | 0.587 | 0.00054 | 919000 | 0.23 | 0.0002 | 871000 | 93.3 | 12500 | 105000 | 328000 | 0.000763 | 90.8 | 3890 | 14000 | 19400 |
| C33B48 (antibody, IgG1, V domains shown, huIgG1 F405L; also called C33F53; C33H80/C33L73) VH: QVQLVQSGSELRKPGASVKVSCKASGYTFTNYAMNWVRQAPGQGLEWMGWINTNTGNPTYAQGFTGRFVFSLDTSVSSAYLQISSLKAEDTAMYYCATDRDRGTDYWGQGTLVTVSS VL: QSALTQPASVSGSPGQSITISCTGTSSDVGDYNYVSWYQQHPGKVPKLMIYDVSNRPSGVSNRFSGSMSGNTASLTISGLQAEDEADYYCSSYSSSSALEVFGGGTKLTVL | 5.47e-05 | 0.0366 | 0.000158 | 4.31e+06 | 0.0112 | 1.82e-05 | 1.62e+06 | 91.1 | 391000 | 429000 | 401000 | 0.00012 | 94 | 43400 | 47300 | 56500 |
| C33B46 (antibody, IgG1, V domains shown, huIgG1 F405L; also called C33F51; C33H108/C33L74) VH: QVQLVQSGSELKKPGASVKVSCKASGYTFSTYAMNWVRQAPGQGLEWMGWINTNTGNPTYAQGFTGRFVFSLDTSVSTAYLQISSLKAEDTAVYYCARDRDRGTDYWGQGTLVTVSS VL: QSALTQPASVSGSPGQSITISCTGTSSDVGDDNYVSWYQQHPGKAPKLMIYDVSNRPSGVSNRFSGSKSGNTASLTISGLQSEDEADYYCSSYSSSTTLEVFGGGTKLTVL | 0.000467 | 0.126 | 0.000375 | 2.97e+06 | 1.38 | 0.00199 | 1.45e+06 | 135 | 418000 | 448000 | 510000 | 0.000148 | 92 | 49700 | 49800 | 49800 |
| C33B123 (antibody, IgG1, V domains shown, huIgG1 F405L; also called C33F128; C33H91/C33L44) VH: QLQLQESGPGLVKPSETLSLTCTVSGGSISSRSHYWGWIRQPPGVGLEWIGSIYYTGSTYYNPSLKSRVTISVDTSKNQFSLKLSSVTAADTAVYYCARLADIVVVPAARYFDYWGQGTLVTVSS VL: not shown | 0.0103 | 2.69 | 0.00339 | 1.26e+06 | 14.8 | 0.0152 | 1.02e+06 | 71 | 8860 | 88200 | 224000 | 0.00274 | 61.1 | 3230 | 10400 | 10700 |
| C33B101 (antibody, V domains shown, huIgG1 F405L; 260 is used; also called C33F106; C33H69/C4LL152) VH: QLQLQESGPGLVKPSETLSLTCTVSGGSISSSSYYWGWIRQPPGKGLDWIGSINYSGSTYYNPSLKSRVTISVDTSKIQFSLKLRSVTAADTAVYYCARLDGYESPFDYWGQGTLVTVSS VL: DIQMTQSPSSVSASVGDRVTITCRASQGISSWLAWYQQKPGKAPKLLIYAASSLQSGVPSRFSGSGSGTDFTLTISSLQPEDFATYYCQQANSFPFTFGPGTKVDIK | 0.000398 | 1.2 | 0.000269 | 225000 | 6.64 | 0.00108 | 162000 | 70.1 | 35500 | 205000 | 269000 | 0.000106 | 79.7 | 18000 | 46100 | 48000 |
| C33B66 (antibody, IgG1, V domains shown, huIgG1 F405L; also called C33F71; C33H55/C33L42) VH: QVQLQESGPGLVKPSGTLSLTCAVSGGSISSSNWWSWVRQPPGRGLEWIGEIYHSGNTNNSPSLKSRVTISADKSKNQFSLKLSSVTAADTAVYFCARIIAVARYFDSWGQGTLVTVSS VL: SYVLTQPPSVSVAPGQTARITCGGNNIGIKSVHWYQQKPGQAPVLVVYDDSDRPPGIPERFSGSNSGNTATLTITRVEAGDEADYYCQVWDSSSDHVVFGGGTKLTVL | 0.000859 | 0.217 | 0.000266 | 1.22e+06 | 52.9 | 0.00203 | 38500 | 130 | 56600 | 313000 | 445000 | 9.33e-05 | 78 | 42200 | 49100 | 48900 |
